According to the nanobody polyreactivity screen of Harvey et al. (2022):

Experiment: yeast display, Sf9 membrane polyspecificity reagent, FACS + sequencing; frameworks hold sequencing errors
Outline: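 Polyreactivity labels are assigned by the sorting gate from which each nanobody was recovered. The gates were low and high (top ~1%), set on anti-HA fluorescence for expression and streptavidin fluorescence for reagent binding. Before sorting, galactose-induced (36–48 hours) yeast display cells were stained for 1 hour at 4 °C with 10% biotinylated, detergent-solubilized Sf9 membrane reagent.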

Sequence: QVQLVESGGGLVQAGGSLRLSCAASGLIFSRNAMGWYRQAPGKERELVAAISGGGGSTYYADSVKGRFTISRDNAKNTVYLQMNSLKPEATAVYYCAAKGYWWLTPWIATYDYWGQGTQVTVSS
- polyreactivity (PSR sort gate): high polyreactivity

Sequence: QVQLVESGGGLVQAGGSLRLSCAASGLIFSRYAMGWYRQAPGKERELVAAITWRGGSTYYADSVKGRFTISRDNAKNTVYLQMNSLKPEDTAVYYCNADGLWFQGYNSWGQGTQVTVSS
- polyreactivity (PSR sort gate): low polyreactivity

Sequence: QVQLVESGGGLVQAGGSLRLSCAASGLIFSVYAMGWYRKAPGKERELVAAITGGGSTHYADSVKGRFTISRDNAKNTVYLQMNSLKPEDTAVYYCATRSYSWLHYWTSRGDEDYWGQGTQVTVSS
- polyreactivity (PSR sort gate): high polyreactivity

Sequence: QVQLVESGGGLVQAGGSLRLSCAASGLIFSVYAMGWYRQAPGKERELVAAISWSGSTYYADSVKGRFTISRDNAKNTVYLQMNSLKPEDTAVDYCAAEYDYDHFYWMDYWGQGTQVTVSS
- polyreactivity (PSR sort gate): high polyreactivity

Sequence: QVQLVESGGGLVQAGGSLRLSCAASGLIFSVYAMGWYRQAPGKVRELVAAITGSGGRTYYADSVKGRFTISRDNAKNYVYLQMNSLKPEDTAVYYCAATVSSYPYYRYYSWGQGTQVTVSS
- polyreactivity (PSR sort gate): high polyreactivity

Sequence: QVQLVESGGGLVQAGGSLRLSCAASGLIFSWYDMGWYRQAPGKERELVAAITTDGDDTYYADSVKGRFTISRDNAKNTVYLQMNSLKPEDTAVYYCAADSELAIRYPDRDYDSWGQGTQVTVSS
- polyreactivity (PSR sort gate): low polyreactivity

Sequence: QVQLVESGGGLVQAGGSLRLSCAASGLIFSYNAMGWYRQAHGKETELVATIRRVGSTNYADSVKGRFTISRDNAKNTVYLQMNSLQPDDTAVYYCAAVYVRIGTRYGYWGQGTQVTVSS
- polyreactivity (PSR sort gate): high polyreactivity

Sequence: QVQLVESGGGLVQAGGSLRLSCAASGLIFSYYTMGWYRQAPGKERELVAAISSAGGSTYYADSVKGRFTISRDNAKNTVYLQMNSLKPEDTAVYYCAARYSGRPYGPPGYLWKDYYWGQGTQVTVSS
- polyreactivity (PSR sort gate): high polyreactivity

Sequence: QVQLVESGGGLVQAGGSLRLSCAASGLIFTDYDMGWYRQAPGKERELVAAISTSGGSTYYADSVKGRFTISRDNAKNPVYLQMNSLKPAETAVYYCAAEYVYPYWNGFDYWGQGTQVTVSS
- polyreactivity (PSR sort gate): low polyreactivity

Sequence: QVQLVESGGGLVQAGGSLRLSCAASGLIFTGYVMGWYRQAPGKERELVAVIRSGDSTYYADSVKGRFTISRDNAKNTVYLQMNSLKPEDTAVYYCAKYDTGGRAHDYWGQGTQVTVSS
- polyreactivity (PSR sort gate): low polyreactivity

Sequence: QVQLVESGGGLVQAGGSLRLSCAASGLIFTVNAMGWYRQAPGKDRELVAAISGGDSTNYADSVKGRFTISRDNAKNTVYLQMNSLKPEDTAVYYCAVRGRAQYTSRRYGYWGQGTQVTVSS
- polyreactivity (PSR sort gate): high polyreactivity

Sequence: QVQLVESGGGLVQAGGSLRLSCAASGLIFTWNAMGWYRQATGKERELVAAISTGGSTSYADSVKGRFTISRDNAKNTVYLQMNSLKPEDTAVYYCARDSSIWSHGSWYDYWGQGTQVTVSS
- polyreactivity (PSR sort gate): low polyreactivity

Sequence: QVQLVESGGGLVQAGGSLRLSCAASGLIFTYYAMGWYRQAPGKERELVAAISGRGGSTYYADSVKGRFTISRDNAKNTVYLQMNSLKPEDTAVYYCAAVRWAGYVSDYGYWGQGTQVTVSS
- polyreactivity (PSR sort gate): high polyreactivity

Sequence: QVQLVESGGGLVQAGGSLRLSCAASGLIFTYYAMGWYRQAPGKEREMVAAISSSGVNTYYADSVKGRFTISRDNAKNTVYLQMNSLKPEYTAVYYCAAELQPSPVGGIIQYGFDYWGQGTQVTVSS
- polyreactivity (PSR sort gate): low polyreactivity

Sequence: QVQLVESGGGLVQAGGSLRLSCAASGLIFVGNAMGWYRQAPGKERELVAAISASTDNTYYADSVKGRFTISRDNAKNTVYLQMISLKPEDTAVYYCNAEQSRNSGKHDYWGQGTQVTVSS
- polyreactivity (PSR sort gate): low polyreactivity

Sequence: QVQLVESGGGLVQAGGSLRLSCAASGLIFVINARGWYRQAPGKERELVAAIDYSGGSTYYADSVKGRFTISRDNAKNTVYLQMNSLKPEDTAVYYCAASKIGYWGDYFRYYYWGQGTQVTVSS
- polyreactivity (PSR sort gate): low polyreactivity

Sequence: QVQLVESGGGLVQAGGSLRLSCAASGLIFVNAMGWYRQAPGKEREFVAAITYSTGSTYYADSVKGRFTISRDIAKNTVYLQMNSLKPEDTAVYYCAKDRSGHGTERDYWGQGTQVTVSS
- polyreactivity (PSR sort gate): low polyreactivity

Sequence: QVQLVESGGGLVQAGGSLRLSCAASGLIFVPYAMGWYRQAPGKERELVATISARGASTYYADSVKGRFTISRDNAKNTVYLQMNSLKPEDTAVYYCATRNYGRASYDYWGQGTQVTVSS
- polyreactivity (PSR sort gate): high polyreactivity

Sequence: QVQLVESGGGLVQAGGSLRLSCAASGLIFVSNAMGWYRQAPGKERELVAAISWSGSRTYYADSVKGRFTISRENAKNTVYLQMNSLKPEDTAVYYCNAVRRGLPVVGAYDYWGQGTQVTVSS
- polyreactivity (PSR sort gate): high polyreactivity

Sequence: QVQLVESGGGLVQAGGSLRLSCAASGLIFVSYAMGWYRQAPGKERELVAAISSGGSTYYADSVKGRFTISRDNAKNTVYLQINSLKPEDTAVYYCAAEYVFRGYVGYDYWGQGTQVTVSS
- polyreactivity (PSR sort gate): low polyreactivity

Sequence: QVQLVESGGGLVQAGGSLRLSCAASGLIFVSYAMGWYRQAPGKERELVASITYSGGGTYYADSVKGRFTISRDYAKNTVYLQMNSLKPEDNAVYYCNADVCWCYSVYREYCMDYWGQGTQVTVSS
- polyreactivity (PSR sort gate): low polyreactivity

Sequence: QVQLVESGGGLVQAGGSLRLSCAASGLIFVVYAMGWYRQAPGKERELVAVISSDGGTYYADSVKGRFTISRDNAKNTVYLQMNSLKPEDTAVYYCAALGYPNARTSRISYFRYDYWGQGTQVTVSS
- polyreactivity (PSR sort gate): high polyreactivity

Sequence: QVQLVESGGGLVQAGGSLRLSCAASGLIFVWYDMGWYRQAPGKERELVATISSDGITNYADSVKGLFTISRDNAKNTVYLQMNSLKPEDTAVSYCNAGPDDYVGYWGKYDYWGQGTQVTVSS
- polyreactivity (PSR sort gate): low polyreactivity

Sequence: QVQLVESGGGLVQAGGSLRLSCAASGLIFWHYAMGWYRQAPGKERELVAAISRRGGSTYYADSVKGRFTISRDNAKNTVYLQMNSLKPEDTAVYYCAADVWGSSAQRGWRKDYYWGQGTQVTVSS
- polyreactivity (PSR sort gate): high polyreactivity

Sequence: QVQLVESGGGLVQAGGSLRLSCAASGLIFYAKAMGWYRQAPGKEREFVAAITYRGGSTYYADSVKGRFTISRDKAKNTVYLQMNCLKPEATAVYYCATVTDRYPYIRRYHFPYYYWGQGTQVTVSS
- polyreactivity (PSR sort gate): high polyreactivity

Sequence: QVQLVESGGGLVQAGGSLRLSCAASGLIFYAYAMGWYRQAPGKERELVAGIWIDDSTYYADSVKGRFTISRDNAKNTVYLQMNSLKPEDTAVYYCNKRVRSYYLYRGDYWGQGTQVTVSS
- polyreactivity (PSR sort gate): low polyreactivity

Sequence: QVQLVESGGGLVQAGGSLRLSCAASGLIFYDNMGWSRQAPGKERELVAAISSSGGSTSYADSVKGRFTISRDNAKNTVYLQMNSLKPADTAVYYCAADSYPAYLGFVGFDYWGQGTQVTVSS
- polyreactivity (PSR sort gate): low polyreactivity

Sequence: QVQLVESGGGLVQAGGSLRLSCAASGLIFYDNMGWYRQAPGKERELVAAISSSGGSTSYADSVKGRFTISRDNAKNTVYLQMISLKPEDTAVYYCAADSSPAFLGFVGFEYWGQGTEVTVSS
- polyreactivity (PSR sort gate): low polyreactivity

Sequence: QVQLVESGGGLVQAGGSLRLSCAASGLIFYDNMGWYRQAPGKERELVAAISSSGGSTSYADSVKGRFTISRDNAKNTVYLQMNSLKPVDTAVYYCAADSYPAYLGFVGFDYWGQGTQVTVSS
- polyreactivity (PSR sort gate): low polyreactivity

Sequence: QVQLVESGGGLVQAGGSLRLSCAASGLIFYGNAMGWYRQEPGKERELVAAISWSGGNTSYADSVKGRFTISRDNAKNTVYLQMNSLKPEVTAVYYCNADSLPSVERYGYWGQGTQVTVSS
- polyreactivity (PSR sort gate): low polyreactivity

Sequence: QVQLVESGGGLVQAGGSLRLSCAASGLIFYGYVMGWYRHAPGKERELVAGISRNYGSTYYADSVKGRFTISRDNAKHTVYLQMNSLKPEDTAVYYCAALTFEAWAGEDYWGQGTQVTVTS
- polyreactivity (PSR sort gate): low polyreactivity

Sequence: QVQLVESGGGLVQAGGSLRLSCAASGLIFYKYAMGWYRQAPGKERELVAAITRGGGSTSYADSVKGRFTISRDNAKNTVYLQMNCLKPEDTAVYYCNAAPYTRALQGEFDYWGQGTQVTVSS
- polyreactivity (PSR sort gate): high polyreactivity

Sequence: QVQLVESGGGLVQAGGSLRLSCAASGLIFYKYAMGWYRQAPGKERELVASISTGGGSTYYADSVKGRFTISRDNAKNTVYLQMNSLKPEDTAVYYCAARWWSRFRGSHSLYDYWGQGTQVTVSS
- polyreactivity (PSR sort gate): high polyreactivity

Sequence: QVQLVESGGGLVQAGGSLRLSCAASGLIFYLYAMGWYRQAPGKEREFVAGINWSGGNTYADSVKGRFTISRDNAKNTVYLQLNSLKPEDTAVYYCAADSLIYTHPYQYDYWGQGTQVTVSS
- polyreactivity (PSR sort gate): low polyreactivity

Sequence: QVQLVESGGGLVQAGGSLRLSCAASGLIFYLYTMGWYRQAPGKERELVAAISRSGTITYYADSVKGRFTISRDNAKNSVYLQMNSLKPEDTAVYYCAATYTYKIGTRYDYWGQGTQVNVSS
- polyreactivity (PSR sort gate): high polyreactivity

Sequence: QVQLVESGGGLVQAGGSLRLSCAASGLIFYQYAMGWYRQAPGKESELVAAISRSGGRTNYADSVKGRFTISRDNAKNTVYLQMNSLKPEDTAVYYCNAVHYFLYGYYSWGQGTQVSVSS
- polyreactivity (PSR sort gate): high polyreactivity

Sequence: QVQLVESGGGLVQAGGSLRLSCAASGLIFYRNAMGWYRQAPGKERELVAAIRFSTGSTYYADSVKGRFTISRDNAKNSVYLQMNSLKPEDSAVYCCAAALPGYGDYYYWGQGTQVTVSS
- polyreactivity (PSR sort gate): high polyreactivity

Sequence: QVQLVESGGGLVQAGGSLRLSCAASGLIFYRYAMGWYRQAPGKERELVAAISSSGVSTYYADSVKGRFTISRDNAKNTVYLQMNSLIPEDTAVYYCAADVGSRSYSYDYWGQGTQVTVSS
- polyreactivity (PSR sort gate): low polyreactivity

Sequence: QVQLVESGGGLVQAGGSLRLSCAASGLIFYRYTMGWYRQAPGKERELVAAISWSGGRTYYADSVKGRFTISRDNAKNTVYLQMNSLKPEDTAVYYCNAVYYYTRASVPYDYWGQGTQVTVSS
- polyreactivity (PSR sort gate): high polyreactivity

Sequence: QVQLVESGGGLVQAGGSLRLSCAASGLIFYVYARGWYRQAPGKERELVAAIRYRGGTTHYADSVKGRFTISRDNAKNTVYLQMNSLKPEDTAVYYCAADGYVYRSGRRYDYWGQGTQVTVSS
- polyreactivity (PSR sort gate): high polyreactivity

Sequence: QVQLVESGGGLVQAGGSLRLSCAASGLIFYWYAMGWYRQAPGKERELVAAITWSGGITYYADSVKGRFTISRDNAKNTVYLQMNSLKPEDTAVYYCAADDDYGDVTYDYWGQGTQVTVSS
- polyreactivity (PSR sort gate): low polyreactivity

Sequence: QVQLVESGGGLVQAGGSLRLSCAASGLIIAHYAMGWYRQAPVKERELVAAITSGSSTYYADSVKGRFTISRDNAKNNVYLQMNSLKPEDTAVYYCAAKETHSAYRSSGNYWGQGTQVTVSS
- polyreactivity (PSR sort gate): low polyreactivity

Sequence: QVQLVESGGGLVQAGGSLRLSCAASGLIIDGYAMGWSRQAPGKERELVATITVSGTSTYYADSVKGRFTISRDNAKNTVYLQMNSLKPEDTAVYYCDTDRNYGYYFVEYDHDYWGQGTQVTVSS
- polyreactivity (PSR sort gate): low polyreactivity
